Here are results for 25 sequences from a protein production outcome set (Wang et al. 2014).

A short description of this data set: label from the status in PepcDB records.
“MITDEHIELFLAQAHRYGDAKLMLCSSGNLSWRIGEEALISGTGSWVPTLAKEKVSICNIASGTPTNGVKPSMESTFHLGVLRERPDVNVVLHFQSEYATAISCMKNKPTNFNVTAEIPCHVGSEIPVIPYYRPGSPELAKAVVEAMLKHNSVLLTNHGQVVCGKDFDQVYERATFFEMACRIIVQSGGDYSVLTPEEIEDLEIYVLGKKTK”: the protein production result is “not failed”.
The entry for “MARVARWFLAVETVAFLGAAGVHAGVLWRGHEHARAATAETVIGVVLGLALLAAAARPRWSRRAAIGAQAFALLGTAVGLFTIAIGVGPRTAPDLAFHVAIVATLVVGLLRLARPTAGLREATP” is “failed”; for “MNEADYLRLLTRQAEQANDFLSNARKWDRERWVCQRFLEALNVPYRQEDFAAPGEQPPDVLFKGAGFEVFFVLDEGRRLNEEWREELTRRRQAVSLRQLIRREERPQRIAAAELQARLAPTLRKKAHNYSERGIDHGELDLLAFVNLKRAVPDFNTPFPPPTEYLRQGWRSLSMVGPTFARVLFAHSGAPEFLRANLGRSILFDAGVGL” it is “not failed”.
With “MSDRFVIWAPSMHNEPAAKCGYCHGNKGGNMDQLFALDSWAHRYMNKMDVVKIENCTIGSFVEHMDVATYDRMCNMGFRRSGKFLYKVDPLRNCCRLYTIRTAPQELNMTKELKKCISRFATRITSEDYCPAAVASSDFVGKIVNAEMNSKTFYTRFEPALYSEEKYHLFVKYQEKVHQDYNNSPKSFKRFLCDTPFGPEAVLGTQESWEQLNNWQRMKPGEKLKHMGPVHECYYYEGKLIAITVSDILPSGISSVYFIWDPDYSKWSLGKLSALRDLAIIQRTNLQYYYLGYYIEDCPKMNYKANYGAEVLDVCHSKYIPLKPIQDMISRGKLFVIGEEETKVTKELYLVDSETGRGEGFPTDNVVKYKNIAEEIYGVGGCAFKSANESALELKELYGIPYEEEDLDTIYHLKEHNGHAPNGIPNVVPGLLPLWELLDIMQSGKITDLEGRLFLFEIETEGIRPLINFYSEPPNVKKRICDVIRLFGFETCMKAVILYSEQM”, the protein production result was “failed”.
The entry for “MPAIMPMLWKQPFGNNLWGLKMKKVEKLLIIGIVLISSILLGAMTLAKPAQANASIVIVIDNEVKHRIPLMVEEEMQTYEFKFGEQTGYLEVKNGKVRMLEMPKEICPEGICSETGWIARSSQAIVCLPNKIIVTIQGLDDKNDEIL” is “failed”.
On to “MITSRSTGELVIPVSRRINNKDGNFGGVFLVTLRVQYFSRFYADFRMDEQGVIVLADQNGTIMVRHPFDTNMIGRNIAKGDIFSKYLPHASRGVHMVVAITDKVERMYGYERLNRYPLVVLAGKSKRAILGSWYESLYGSLIMLCLILPIPVLFATLISRQIKTTLKVEDELRLAYAAVEAIAMQDSLTGLANRRQLDVVLPAEIKRAKRTSQPLGVIMVDIDYFKRYNDYYGHPAGDLCIKAIANVLKNHTRRAGNLAARYGGEELTVLLPSCDQAAVLAAAERIVESIRGLQIAHDDSPEGYLTVSVGAYSYSAFNKEVDASGLLKCADDALYAAKQAGRNRARLSA”, for which the protein production entry is on record as “failed”.
For “PKSQACEPSEPEIEIKLPKLRTLDVFSGCGGLSEGFHQAGISDTLWAIEMWDPAAQAFRLNNPGSTVFTEDCNILLKLVMAGETTNSRGQRLPQKGDVEMLCGGPPCQGFSGMNRFNSRTYSKFKNSLVVSFLSYCDYYRPRFFLLENVRNFVSFKRSMVLKLTLRCLVRMGYQCTFGVLQAGQYGVAQTRRRAIILAAAPGEKLPLFPEPLHVFAPRACQLSVVVDDKKFVSNITRLSSGPFRTITVRDTMSDLPEVRNGASALEISYNGEPQSWFQRQLRGAQYQPILRDHICKDMSALVAARMRHIPLAPGSDWRDLPNIEVRLSDGTMARKLRYTHHDRKNGRSSSGALRGVCSCVEAGKACDPAARQFNTLIPWCLPHTGNRHNHWAGLYGRLEWDGFFSTTVTNPEPMGKQGRVLHPEQHRVVSVRECARSQGFPDTYRLFGNILDKHRQVGNAVPPPLAKAIGLEIKLCML”, the protein production entry is listed as “failed”.
For “MKAKPLSQDPGSKRYAYRINKEENRKELKHVKINESSLVQEGQKIDLPKKRYYRQRAHSNPFSDHQLEYPVSPQDMDWSKLYPYYKNAENGQMTKKVTIADIGCGFGGLMIDLSPAFPEDLILGMEIRVQVTNYVEDRIIALRNNTASKHGFQNINVLRGNAMKFLPNFFEKGQLSKMFFCFPDPHFKQRKHKARIITNTLLSEYAYVLKEGGVVYTITDVKDLHEWMVKHLEEHPLFERLSKEWEENDECVKIMRNATEEGKKVERKKGDKFVACFTRLPTPAIL”, the protein production entry is “failed”.
Regarding “METQFHGGDGEDPWLARDKLYHVIFCFSISLIFSTLASFSRYSFLRRHSIWIGSAFSLAAGAAKEAADQIGIFPSAGASVRDAVADAIGVVIAALVLLLWKSRRSRTRPILPI”, the protein production result was “failed”.
The entry for “MIITIARQCGCGGHEVARILANKLGMELFDKKKLLEEANQLGQAEEHSNFFNEVPINSLLYGIAMGFGNTKPMDKSLKLVKAITENKDAIIIGRCANIIYKDSKDVTSVYLFADKEFRIKYLMERDGISEKEAEKYIKEVDEKRTSFHKYCTDTVWGDAKEYQLCLDTGKIGFEKTAELIMNYINAKKES” is “failed”; for “KKLCGYLSKFGGKGPIRGWKSRWFFYDERKCQLYYSRTAQDANPLDSIDLSSAVFDCKADAEEGIFEIKTPSRVITLKAATKQAMLYWLQQLQMKRWEFHNSPPAP” it is “not failed”.
“MSLQRFTNRTIVVAGAGRDIGRACAIRFAQEGANVVLTYNGAAEGAATAVAEIEKLGRSALAIKADLTNAAEVEAAISAAADKFGEIHGLVHVAGGLIARKTIAEMDEAFWHQVLDVNLTSLFLTAKTALPKMAKGGAIVTFSSQAGRDGGGPGALAYATSKGAVMTFTRGLAKEVGPKIRVNAVCPGMISTTFHDTFTKPEVRERVAGATSLKREGSSEDVAGLVAFLASDDAAYVTGACYDINGGVLFSEGHHHHHH”: the protein production entry was “not failed”.
For “MVKVTYDGVYVLSVKDDVPAADVLHAGDLITEIDGNAFKSSQEFIDYIHSKKVGDTVKINYKHGDKNEQADIKLTAIDKKGTPGIGITLVDDLEHHHHHH” the value was “not failed”; for “LNLPYDEHADAWTQVKKALAAGKRTHKPTLLVFGANWCTDCRALDKSLRNQKNTALIAKHFEVVKIDVGNFDRNLELSQAYGDPIQDGIPAVVVVNSDGKVRYTTKGGELANARKMSDQGIYDFFAKITETRGV”, “failed”.
For the sequence “MRVFPVTLGPLQENAYLVETGEGPVLIDPGDEPEKLLALFQTTGLIPLAILLTHAHFDHVGAVAPLVEALDLPVYLHPLDLPLYEGADLAARAWGLAIPKPPLPVRPLEEGMRLFGFQVLHLPGHSPGHVAFYDPEGAQVFSGDLLFRGSVGRYDLPGADPKALFASLKRLLSLPPETRVHPGHGPGTTLGLEARTNPFLTGLEWEA”, the protein production result is reported as “not failed”.
The entry for “MVDMDWKRKMVSSDLPNSPKLSSKLHVTIPSPFKIVPVSSPISCSAPALCSAYELYLRLPELRKLWSSRDFPQWTSEPILKPALQALEISFRLVFAVCSDTRPYINHREWNRRLDSLITKQIQLVAAICEDEEEEGISAEAPVGGGRSSLSLLPQLATWRRSEALGKKILYTIDNEMSRCKYTLGLGEQNIAGKPNLRYDAICRPNEIYSLKDNPYADHIDNHENQTLYIIHQILESWIYASGNLLNRIVSSIEEEKFGKASNDVYLLEKIWKILAEIEDLHMLMDPEDFLKLKKQLQIKSTGKNDAFCFRSKGLVEMMKMSKDLRQKVPAVLAVEVDPTGGPRLQEAAMKLYARKTECDKIHLLQGMQAVEAAAKSFFFGYRQLVAAMMGSAEMNATASQESCDSLSQIFMEPTYFPSLDAAKTFLGEFWSHLG” is “failed”.
For the sequence “MVFSGPASPGLTLAPLRRGGIDPCYRVDAAGAIWRTSLMPSGPVTARITRAATDAADCQAWGEGADEFIDRLPALLGVDDDASDFAPAEPTIAKARRQVPHLRLGRTGRMLEALIPAIIEQRVYGLDAWRAWRALVTKFGTPAPGPAPDGMRVVPSAEVWRRIPSWEFHRANVDPGRARTIVMCAQRADSLERLTHERAAVTLRSLPGVGEWTAAETMQRVFGDADALSAGDYHLATLVGQALTGEPVDDAGMVELLEPMRPHRHRAVRLLEASGMFVYRRRGARQAIPKLRTLLEHHHHHH”, the protein production entry is recorded as “failed”.
For “VLWISSSPVLQRFDKPLLQYISKDVNVAQWEYRHHRDEGSSIDEAVDLLAEFMGQCPYPVNLAGHAAGGAIALSFARRYPKKVRSLSLLAVASQPANTWHAHYYLQRQLFTISREQILANTVRNLFGEQPSHTTKKLVAVLDRDLEQSPLLHSLFKLVHLPEGGVNMPLMICGSKNDPIVSSTTLQDWSNCLKPEDHLWECPKGHHFFHYFYPQTVGDQLLNFWQ” the value was “failed”.
For the sequence “MTDDPTLWAQRLEEAVVGLGANGDRSHDLAHAKRVLRTALALADGVEDQGEGPVDRLVLTAAAYLHDIVAIEKNDPRRSLASRLSAAKAREILGGLDFPAGRQDGVAHAIEAHSFSAGIAPRSLEARILQDADRMESLGAIGVARTFYVAGRLGSALFHDDDPLAFARPLDERAYALDHFFTKLLTLPATMTTAPGRAMAGERAELLRAFAEALAQEVSGAAAPGPRPARPSDGEAPSPLPVWPGSGTRTR”, the protein production result is listed as “failed”.
For the sequence “MSLLIRELETNDLDNFPEIDDSFIVNARLMLSLSKVNRRIEYTVEDVPSYEKSYLQNDNEELVYNEYINKPNQIIYIALLHNQIIGFIVLKKNWNNYAYIEDITVDKKYRTLGVGKRLIAQAKQWAKEGNMPGIMLETQNNNVAACKFYEKCGFVIGGFDFLVYKGLNMTSDEVAIYWYLHFDS”, the protein production entry is on record as “failed”.
On to “MTAARSAPSPAGAPRPGLRERKKTRTREAIRAATYGLIRQQGYEATTVEQIAERAEVSPSTVLRYFPTREDIVLTDEYDPVMAAELAARPAGEPWSDSLRHVLRKALGLGAGEEAELIRLRTRLLAEVPAVRARMLENMSDTGRMLARAIADRTGLDPDGLEVRIVSMSLVGGLMEVSRYWAEHDHEESLAELVDRALDALENGLPALRESDRESDREGDRGGHREDRREGPRKD”, for which the protein production result is reported as “not failed”.
For “MKSASGQEKSIVVRRFDPARFVALVRKESLQAMRDPSTLLIALVLPLILLFLFAYAVSLDVRHVRIGVVLESPGATARTLADAFSGTHYLDVTFAYDRREVAGKLIAGELRGYVVIPQNFERHFADTGSPLVQIITDGSQPNTANFVANYAQGVVQTWMASLTETMPMPAVQLEPRYWFNPELASRRALVPGAIAIIMTIIGTLLTALVVAREWERGTMEAILSTPASVLEILVGKLLPYFVLGMLSTLIAAALAVFLFNVPLRGSLFALLVLSAVFMMPALGQGLLISSLARNQFLASQLALFSGYLPAFMLSGFLFEIDAMPALIRAITWLIPARYFVSSLKTIFLAGDVWSVFLPDLLGMATIGLIFFLIAQRYTRKSLE” the value was “failed”.
Consider “MQITIKVLKGKDCTIEVAPTSTILEVKHQIEAELQISATNQKLLLLGRPLNNEQTIASYPNIKEGTKLNLVVIKP”, for which the protein production result is listed as “failed”.
As to “MVSYKILSVANKLKNIRDKYGLSQEDLAGNEITRNLISQIEHNKANLTRSAAEIMLKNLKKICDKKNVQVDEDINYLMEDEKSQAIKVLDKYIDDLRDLTIYKDNVFINKLREVEDFLVTWDFRDKKITIFELAGDYFSSTNDFYNASLYYEKAKALIDINIYSDNIVHILRKLSMTYYYMLRYQDDINCCEFALKQFKNMDEEYRCIFLFNSSLCYGQLKKYDLALKRLNEVESIIKNIDQNKYYEVLIQKAICYQWMKEYQKSLDIYNKLLESIDKSDYEKYLFILVNSSDIYVENSNFEKAESNLRIILENINNLNESSTLLPSTYLEMSRILKKLGYTKDAELYCLKSLNYAKRNTHYYLVNDIYGELLDIYKTLNVPEKVQTIKDEFFSNSSRDKNLNSKLMFKLLDFYFATNDIHSIKEIYDFSKNFIQERMINLCY”, the protein production entry is reported as “failed”.
Take “ARQRFIYIARHRSENIAYYAQALKIDGMVLKAESRRFYPLAEEASQLIGFTDVDDQQGSEGLERSFNSLLVGKNGKQIIRKDARGNVIENIRDEKQYDPQDVMLSID”: the protein production result is on record as “failed”.
